# Patent publication US11485776B2, “Antibodies against infectious diseases” (priority 2015, dated 2022)
# “Also recorded” adds a separate entry of the source.
# B1: CaS1 scFv: anti-CaENO1 scFv monoclonal antibody from chicken phage library; light chain SEQ ID NO:11, heavy chain SEQ ID NO:12 (antibody, V domains shown)
# VH: TVTLDESGGGLQTPRGALSLVCKASGFTFIDYGMQWVRQAPGKGLEWVAGIGSSGSSTNYGAAVKGRATISRDDGQSTVRLQLNNLRAEDTGTYYCAKSAGGYCVNGAGCNGGSIDAWGHGTEVIVSS
# VL: ALTQPSSVSANLGGTVKITCSGGSGSYGWYQQKSPGSAPVTVIYSNNQRPSNIPSRFSGSPSGSTGTLTITGVQADDEAVYFCGSRDSSYVGVFGAGTTLTVL
# modifications: scFv linker; amino acid sequence comprised in a heavy chain of an anti-CaENO1 scFv monoclonal antibody (CaS1); amino acid sequence comprised in a light chain of an anti-CaENO1 scFv monoclonal antibody (CaS1)
# Experiments:
# [1] = system: ENO1 proteins on Candida spp. (C. krusei); type: binding
# Description: (§1) (A) The total cell lysates of 5 Candida spp. were visualized on SDS-PAGE (left). After transferred onto the NC membranes, they were probed with purified anti-CaENO1 from 7th immunized chicken (1:3,000) (middle), or with CaS1 scFv (right) as described in material and methods. Lanes 1-6 in (A) contained the total cell lysates of C. albicans, C. krusei, C. tropicalis, C. parapsilosis and C. glabrate and purified recombinant CaENO1, respectively. […] (C) Total cell lysate from FLU^R and FLU^s and C. tropicalis (lanes 1-5 represent CT6-29, CT11-52, CT6-50, CT12-54, BCRC20520, respectively) by SDS-PAGE (left) and probed with CaS1 scFv by Western blot (right). (D) The purified ENO1 proteins of C. albicans, S. pneumonia, S. aureus, mouse and human were visualized on SDS-PAGE (left). After transferred onto the NC membranes, they were probed with purified CaS1 scFv (right) as described. Lane M contained protein markers.
# (§2) To detect the presence of ENO1 proteins, the purified recombinant ENO1 protein or cell lysates of five Candida spp were subjected to SDS-PAGE analysis, transferred onto nitrocellulose membranes (Amersham Biosciences, UK) and then blocked with 5% skim milk in TBST for 1 hr. The anti-CaENO1 IgY from chicken after 7th immunization (1:3,000) or purified CaS1 scFv antibody (1 μg/ml) were added and incubated for 1 hr at room temperature. After vigorous washings, horseradish peroxidase (HRP)-conjugated polyclonal donkey anti-chicken IgY antibodies (1:3,000) (Bethyl Laboratories, Montgomery, Tex., USA) were added and incubated for an additional 1 hr for detecting the bound IgY antibodies. However, goat anti-chicken light chain antibodies (1:3,000) (Bethyl Laboratories, Montgomery, Tex., USA), followed by HRP-conjugated donkey anti-goat IgG antibodies (Jackson ImmunoResearch, USA) were used for detecting the bound scFv antibodies. After washings as above, the membranes were developed with diaminobenzidine (DAB) or ECL substrate. The ImageQuant LAS4500 was used for ECL intensity detection.
# (§3) This CaS1 scFv was evaluated for its binding activity to different species of Candida. Five common strains of Candida were obtained, total lysate of five species Candida were analyzed on SDS-PAGE (FIG. 6A left) and subsequent Western blot.
# [2] = system: ENO1 proteins on Candida spp. (C. tropicalis); type: binding
# Description: as §1, §2, §3
# [3] = system: ENO1 proteins on Candida spp. (C. parapsilosis); type: binding
# Description: as §1, §2, §3
# [4] = system: ENO1 proteins on Candida spp. (C. glabrate); type: binding
# Description: as §1, §2, §3
# mENO1 = target: T1, mENO1 (Mus musculus, UniProt P17182); assay: Western blot on purified mouse ENO1 protein; type: binding
# T1 construct: His; made in house; host or cells: E. coli BL21 (by 'in the same way')
# T1 sequence (P17182 whole entry): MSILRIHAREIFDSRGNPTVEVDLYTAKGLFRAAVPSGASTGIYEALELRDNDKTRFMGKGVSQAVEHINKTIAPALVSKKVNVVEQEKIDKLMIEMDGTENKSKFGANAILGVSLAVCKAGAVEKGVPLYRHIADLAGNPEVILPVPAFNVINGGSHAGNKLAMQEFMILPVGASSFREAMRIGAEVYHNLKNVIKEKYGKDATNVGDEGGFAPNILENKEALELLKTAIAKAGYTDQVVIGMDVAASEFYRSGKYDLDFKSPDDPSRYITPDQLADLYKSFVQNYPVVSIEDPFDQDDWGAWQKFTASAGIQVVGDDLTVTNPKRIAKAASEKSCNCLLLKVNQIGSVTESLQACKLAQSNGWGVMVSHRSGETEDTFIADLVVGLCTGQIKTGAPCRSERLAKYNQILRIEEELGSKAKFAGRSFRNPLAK
# Description: Lane M contained protein markers.
# The ImageQuant LAS4500 was used for ECL intensity detection.
# C. albicans = assay: Mouse model of C. albicans infection (survival); type: in vivo, ICR mice; conditions: for survival rate: ICR mice; for Protection against lethal challenge of C. albicans in mice: mouse, in vivo
# Protocol: The mice were grouped and challenged with the mixture of 10^6 of C. albicans containing 10 ug and 100 ug CaS1 scFv, 100 ug anti-DA scFv (unrelated scFv control) or 1×PBS, respectively. The survival of mice was monitored at 1 day intervals for 10 days.
# A total of 20 ICR female mice (purchased from National Laboratory Animal Center, Taiwan) weighing about 30 g were randomly grouped with 5 mice in each group. C. albicans were grown overnight and washed in normal saline. Four groups of mice were treated through the lateral tail vein with the following preparations: (i) 1×PBS alone; (ii) 1×10^6 cfu of C. albicans cells pre-incubated with 50 μg of CaS1; (iii) 1×10^6 cfu of C. albicans cells pre-incubated with 100 μg of CaS1; (iv) 1×10^6 cfu of C. albicans cells pre-incubated with anti-CaENO1 IgY. Mice were monitored for survival at 1 day intervals for 10 days. All treatments and handling of mice were carried out according to animal experimental protocols approved by the Institutional Animal Care and Use Committee of Taipei Medical University.
# 1×10^6 cells of C. albicans solutions were mixed with 100 μg of each of the anti-CaENO1 IgY, scFv CaS1 and control scFv and then injected into ICR mice (5 mice for each group).
# We evaluated the survival rate of the CaS1 on animal model. Initially ICR mice were tail-vein injected with 1×10^6 cells of C. albicans with PBS alone or cells pre-incubated with CaS1 (10 and 100 μg) for one hour at 37° C. […] Anti-Deinagkistrodon acutus scFv (anti-DA) is an antibody to snake venom, which was used as an unrelated scFv control.
# [5] = system: binding of C. albicans cells to human oral keratinocyte OECM-1 cells; assay: Adhesion assay of C. albicans to OECM-1 cells; type: cell-based; conditions: 50 μg and 100 μg, vs PBS control
# Protocol: C. albicans were mixed with 1×PBS, 50 ug or 100 ug CaS1 scFv at 37° C. for 1 hr and added into OECM-1 cells in culture wells as described in the text. After being washed, cells attached to C. albicans were detected by adding HRP-conjugated anti-C. albicans antibodies.
# Cell adhesion assay was performed using human oral epidermal cells (OECM-1) (XXX). C. albicans (1×10^6 cfu) were pre-incubated with CaS1 scFv antibodies ([…]) at 37° C. for 1 hr. After incubation, the mixtures were two-fold diluted and added onto 10^4 OECM-1 cells cultured in 96-well plates. The plates were further incubated at 4° C. for 2 hrs. After being washed three times with 1×PBS, the plates were fixed with 10% formaldehyde. After being washed as above, the wells were blocked with skim milk for 1 hr. Thereafter, rabbit anti-C. albicans antibodies (1:3,000, Bethyl, USA) were added and incubated for another 1 hr, followed by adding the HRP-conjugated anti-rabbit antibodies (1:3,000, Bethyl, USA). Washings as above were always carried out between steps. TMB was used for color development, which was stopped with 1 N HCl. The intensity of the color was measured at 450 nm on an ELISA plate reader.
# C. albicans cells (1×10^6) were treated with 50 μg and 100 μg of scFv CaS1, respectively, and the resulting mixtures were added to human oral keratinocyte OECM-1 cells to test the binding ability of C. albicans cells to OECM-1 cells.
molecule,measurement,setting,value
B1,Binding to ENO1 in total cell lysate of C. krusei (Western blot),[1],cannot react
same,Binding to ENO1 in total cell lysate of C. tropicalis (Western blot),[2],specifically recognized; also recorded: reacted
same,Binding to fluconazole resistance and susceptible C. tropicalis from clinic (Western blot),[2],binds; also recorded: can bind
same,Binding to ENO1 in total cell lysate of C. parapsilosis (Western blot),[3],cannot react
same,Binding to fluconazole resistance and susceptible C. parapsilosis from clinic (Western blot),[3],not
same,Binding to ENO1 in total cell lysate of C. glabrate (Western blot),[4],cannot react
same,Binding to fluconazole resistance and susceptible C. glabrate from clinic (Western blot),[4],not
same,Binding to purified mENO1 (Western blot),mENO1,very little; also recorded: weak cross reactivity
same,survival rate,"C. albicans; 10 μg pre-incubated with 1×10^6 cells of C. albicans, tail-vein",40%
same,survival rate,"C. albicans; 100 μg mixed with 1×10^6 cells of C. albicans, 10 days",80%
same,Protection against lethal challenge of C. albicans in mice,C. albicans,partial protect activity; also recorded: significant protective activity
same,Protection against lethal challenge of C. albicans in mice,C. albicans; listed as CaS1 antibody,prolonged the survival time
same,Binding of C. albicans cells to OECM-1 cells,[5]; listed as CaS1,inhibited its adherence
same,Binding of C. albicans cells to OECM-1 cells,[5]; listed as CaS1 ScFv,inhibited
same,Binding of C. albicans cells to OECM-1 cells,[5]; listed as scFv CaS1,significantly reduced
